The target of the test is T1, GIP130b (human, UniProt Q4L180 1-1128).
T1 construct: Full length; tested as GAL4 domain fusion in yeast two-hybrid
T1 sequence: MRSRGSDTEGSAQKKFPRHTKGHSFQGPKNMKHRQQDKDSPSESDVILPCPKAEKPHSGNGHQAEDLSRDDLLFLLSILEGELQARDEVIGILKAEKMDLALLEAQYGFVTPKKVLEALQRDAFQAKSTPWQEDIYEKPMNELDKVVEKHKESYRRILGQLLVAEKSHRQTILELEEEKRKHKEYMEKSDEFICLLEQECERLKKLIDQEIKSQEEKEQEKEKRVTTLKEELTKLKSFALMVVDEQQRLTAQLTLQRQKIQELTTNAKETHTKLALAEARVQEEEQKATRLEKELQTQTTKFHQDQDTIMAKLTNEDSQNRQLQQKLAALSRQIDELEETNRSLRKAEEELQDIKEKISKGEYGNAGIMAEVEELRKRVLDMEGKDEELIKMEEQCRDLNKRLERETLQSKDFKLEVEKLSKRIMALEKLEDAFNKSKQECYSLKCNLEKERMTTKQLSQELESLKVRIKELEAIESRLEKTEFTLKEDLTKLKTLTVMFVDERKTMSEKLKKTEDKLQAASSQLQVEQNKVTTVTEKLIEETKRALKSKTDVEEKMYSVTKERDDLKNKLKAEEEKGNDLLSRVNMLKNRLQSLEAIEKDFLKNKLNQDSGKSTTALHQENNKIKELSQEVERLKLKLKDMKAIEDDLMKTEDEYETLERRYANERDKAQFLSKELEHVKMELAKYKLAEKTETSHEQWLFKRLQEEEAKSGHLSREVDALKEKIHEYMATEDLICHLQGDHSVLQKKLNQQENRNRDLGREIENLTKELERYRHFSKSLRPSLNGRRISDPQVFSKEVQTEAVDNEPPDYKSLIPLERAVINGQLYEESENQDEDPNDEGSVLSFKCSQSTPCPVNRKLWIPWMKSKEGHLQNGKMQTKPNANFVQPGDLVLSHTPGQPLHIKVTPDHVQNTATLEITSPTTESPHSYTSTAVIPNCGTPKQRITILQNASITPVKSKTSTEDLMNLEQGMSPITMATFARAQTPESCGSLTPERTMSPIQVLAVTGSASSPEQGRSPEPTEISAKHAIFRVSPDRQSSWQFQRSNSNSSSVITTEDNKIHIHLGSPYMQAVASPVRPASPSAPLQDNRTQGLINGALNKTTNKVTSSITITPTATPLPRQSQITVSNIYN
Briefly: yeast two-hybrid and three-hybrid (conclusion). As for the experimental part:
Accordingly, we have observed with a yeast three-hybrid system that GPBP expression efficiently impairs both I-20 and GIP90 aggregation, and that I-20 and GIP90 efficiently impair GPBP aggregation.
Deletion mutants were obtained using specific primers and PCR, followed by cloning of the resulting cDNAs in the pGBT9 and pGAD424 vectors. The assays were performed in SFY526 or HF7c Saccharomyces cerevisiae strains, with pGBT9 as GAL4 binding domain vector and pGAD424 as GAL4 activation domain vector, by the lift colony assay procedure. Briefly, the yeast cells were co-transformed with constructs of both binding domain and activation domain vectors, and the co-transformants were selected in medium deficient in both tryptophan and leucine. After five days of incubation at 30° C. the colonies were tested for the expression of β-galactosidase with X-Gal substrate (0.75 mg/ml). […] When the assays were performed with the HF7c strain, the interactions were assessed by the lift colony assay procedure and by growth in medium deficient in histidine, tryptophan and leucine. For yeast three-hybrid system, we used the pBRIDGE vector, which allows the conditional expression of a third protein apart from the usual GAL4 binding and activation domain-fusion proteins of the two-hybrid system. In this case, the expression of GPBP or I-20 or GIP90 was driven by Met25 promoter, active in absence of methionine. In these experiments, the transformed SFY526 cells were plated in medium deficient in tryptophan, leucine and methionine, and subjected to the colony lift assay after five days at 30° C. In the case of the strain HF7c the colonies grown in the cited plates were streaked on medium with the additional deficiency of histidine.

B1: Goodpasture antigen binding protein (GPBP) (enzyme, UniProt Q9Y5P4 1-624, looked up)
chain: MSDNQSWNSSGSEEDPETESGPPVERCGVLSKWTNYIHGWQDRWVVLKNNALSYYKSEDETEYGCRGSICLSKAVITPHDFDECRFDISVNDSVWYLRAQDPDHRQQWIDAIEQHKTESGYGSESSLRRHGSMVSLVSGASGYSATSTSSFKKGHSLREKLAEMETFRDILCRQVDTLQKYFDACADAVSKDELQRDKVVEDDEDDFPTTRSDGDFLHSTNGNKEKLFPHVTPKGINGIDFKGEAITFKATTAGILATLSHCIELMVKREDSWQKRLDKETEKKRRTEEAYKNAMTELKKKSHFGGPDYEEGPNSLINEEEFFDAVEAALDRQDKIEEQSQSEKVRLHWPTSLPSGDAFSSVGTHRFVQKPYSRSSSMSSIDLVSASDDVHRFSSQVEEMVQNHMTYSLQDVGGDANWQLVVEEGEMKVYRREVEENGIVLDPLKATHAVKGVTGHEVCNYFWNVDVRNDWETTIENFHVVETLADNAIIIYQTHKRVWPASQRDVLYLSVIRKIPALTENDPETWIVCNFSVDHDSAPLNNRCVRAKINVAMICQTLVSPPEGNQEISRDNILCKITYVANVNPGGWAPASVLRAVAKREYPKFLKRFTSYVQEKTAGKPILF
notes: Protein kinase; Fusion parts are not written as pieces
On to B1, for which the binding result is reported as “binds”.
